Measurements reported in paper PMC7821874 (Science Advances, 2020).

Assays:
[1] = biological target: T1, wild-type (WT) human CAV1α with a C-terminal 6X-Histidine tag (human), Q03135; test: negative stain electron microscopy; conditions: remark: other sources report otherwise
T1 chain: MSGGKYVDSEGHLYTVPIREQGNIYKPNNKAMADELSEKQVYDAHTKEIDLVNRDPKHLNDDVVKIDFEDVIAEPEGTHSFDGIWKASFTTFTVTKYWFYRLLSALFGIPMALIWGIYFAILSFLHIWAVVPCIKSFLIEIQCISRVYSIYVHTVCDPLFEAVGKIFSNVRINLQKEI

[2] = biological target: the molecule itself; test: negative stain electron microscopy

B1: wild-type (WT) human CAV1α with a C-terminal 6X-Histidine tag, Q03135 1-178 (natural protein)
chain: MSGGKYVDSEGHLYTVPIREQGNIYKPNNKAMADELSEKQVYDAHTKEIDLVNRDPKHLNDDVVKIDFEDVIAEPEGTHSFDGIWKASFTTFTVTKYWFYRLLSALFGIPMALIWGIYFAILSFLHIWAVVPCIKSFLIEIQCISRVYSIYVHTVCDPLFEAVGKIFSNVRINLQKEI
**Q.** B1 was tested. Which stoichiometry N [1] did it give?
**A.** 10

B2: CAV1β with a 6X His-tag at the C terminus (natural protein, human, UniProt Q03135 32-178, looked up)
chain: MADELSEKQVYDAHTKEIDLVNRDPKHLNDDVVKIDFEDVIAEPEGTHSFDGIWKASFTTFTVTKYWFYRLLSALFGIPMALIWGIYFAILSFLHIWAVVPCIKSFLIEIQCISRVYSIYVHTVCDPLFEAVGKIFSNVRINLQKEI
**Q.** Does B2 bind [2]?
**A.** binds

B3: CAV1β-Venus (natural protein, human, UniProt Q03135 32-178, looked up)
chain: MADELSEKQVYDAHTKEIDLVNRDPKHLNDDVVKIDFEDVIAEPEGTHSFDGIWKASFTTFTVTKYWFYRLLSALFGIPMALIWGIYFAILSFLHIWAVVPCIKSFLIEIQCISRVYSIYVHTVCDPLFEAVGKIFSNVRINLQKEI
**Q.** Does B3 bind [2]?
**A.** binds
